Laboratory results taken from paper PMC5120205 (2016).

B1: D4-10-N1 germline-reverted (IGHV4-39) (antibody, V domains shown)
VH: QLQLQESGPGLVKPSETLSLTCTVSGGSISSSSYYWGWIRQPPGKGLEWIGSIYYSGSTYYNPSLKSRVTISVDTSKNQFSLKLSSVTAADTAVYYCAKPKSRDRGGPGDDYFGMDVWGQGIMVTVSS
VL: DIQLTQSPSFLSASVADRVTITCRASQAVRSSLAWYQQKPGKAPQLLIYSASTLENGVSSRFSGSGPGTEFTLTISSLQPEDVGTYYCQQLNTYPFTFGPGTKVEIK
B2: D2-06-N2 (IGHV1-69*01 germline-reverted) (antibody, V domains shown)
VH: QVQLVQSGAEVKKPGSSVKVSCKASGGTFSSYAISWVRQAPGQGLEWMGGIIPIFGTANYAQKFQGRVTITADESTSTAYMELSSLRSEDTAVYYCARDRPPGAQFDTWGQGTLVTVSS
VL: not shown

Assays:
[1] = biological target: recombinant full-length IsdB (Staphylococcus aureus strain USA300, UniProt Q2FHV2 41-613); assay: SPR
[2] = biological target: IsdB NEAT2 domain (Staphylococcus aureus strain USA300); assay: SPR

| Binder | Kd [1] | Kd [2] |
| --- | --- | --- |
| B1 | 90.7 nM | – |
| B2 | – | 24.1 nM |
